The labels stand for the following.
B1: TPR 5TU (parent)
chain: GGAUCUUCUCGAUCUAACAAAAAAGACAAAUCUGCCACAAAGCUUGAGAGCAUCUUCGGAUGCAGAGGCGGCAGCCUUCGGUGGCGCGAUAGCGCCAACGUUCUCAACUAUGACACGCAAAACGCGUGCUCCGUUGAAUGGAGUUUAUCAUG

This sample holds only a part of the variants without activity.

The variants in the series derive from B1. Kind of series: polymerase ribozyme fitness, log enrichment relative to wild type (log ratio); higher = more active; in vitro selection for triplet polymerase activity. The method in brief:
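Only genotypes with ≥10 input reads and ≥1 read per output were kept after Illumina sequencing of input and output libraries. These libraries were PCR-built, transcribed mutants of each subunit of a heterodimeric triplet polymerase ribozyme, each put through one triplicate in vitro selection round with frozen incubation at −7 °C, gel excision of extended constructs, streptavidin-bead capture and RT-PCR. Fitness is a logarithmic ratio of genotype enrichment to wild-type enrichment, from inverse-variance-weighted replicate averages, with the logarithm in base 2.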
Consider U55A U82G C96G C116U G140C, for which the “polymerase ribozyme fitness (log ratio)” value is -4.17. The figure for U55A C57U G81A G84A is -0.555. Consider U55A U139A, for which the “polymerase ribozyme fitness (log ratio)” value was -4.05. To C54U G81A G86U C105A A147U belongs -4.16. Turning to C54U G84U, the “polymerase ribozyme fitness (log ratio)” value is -2.22. The figure for U55A G81A is -1.9; for U55A A66U C79U G80C C87G C116U U145G it is at most -4.2. The figure for U55A A64G G84A C93G A137G A142U is at most -4.2; for U55A G59A C75U G92U C99G C129G U139G it is at most -4.2. As to U56A A73G C76U, the “polymerase ribozyme fitness (log ratio)” value was determined as 0.764. Regarding U56A U90G, the “polymerase ribozyme fitness (log ratio)” value was at most -4.2.

In the case of U56A U61G G65A C85A G86A A121U U127A, the “polymerase ribozyme fitness (log ratio)” value is at most -4.2.

On to U56A G124C, for which the “polymerase ribozyme fitness (log ratio)” value is -1.68.

As to U55A C95U, the “polymerase ribozyme fitness (log ratio)” value was -0.137. Turning to U55A A91U G136A, the “polymerase ribozyme fitness (log ratio)” value is at most -4.2.

Consider U56A G88A, for which the “polymerase ribozyme fitness (log ratio)” value is -3.78. To U55A C63U C85U C105U belongs 0.719.

As to C54U G83A, the “polymerase ribozyme fitness (log ratio)” value is -0.655. For the variant C54U G83U, the “polymerase ribozyme fitness (log ratio)” value is -0.319. To C54U U144A belongs -0.258; to C54U U135A G136C, -3.76.

As for U55A A107C, the “polymerase ribozyme fitness (log ratio)” value is at most -4.2.

As for C57A A107C C125A G133A G136A U151A, the “polymerase ribozyme fitness (log ratio)” value was at most -4.2.

With U55A C69G U146A, the “polymerase ribozyme fitness (log ratio)” value was -3.62. To U56G G92U belongs -2.1; to U56A C57A C85G, -0.79. The figure for U56A C95A is -0.487; for U55A C57G A89U G136C it is -3.69; for U55G A98G it is -0.84. For the variant U55A U148C, the “polymerase ribozyme fitness (log ratio)” value is -1.05.

As for U55C A98G A113U A142G, the “polymerase ribozyme fitness (log ratio)” value was -2.98. To U56A G141U belongs 0.137; to C57G A115U U145A, -1.54. With U55G C69A A97U A119U G141A, the “polymerase ribozyme fitness (log ratio)” value is -1.39. The figure for U55A C85U is -0.644; for U55A C63U A142U it is -0.552. In the case of U55G G67C U78G G83U C93A U102A A121C, the “polymerase ribozyme fitness (log ratio)” value is at most -4.2.

Turning to U56A G81U U101G, the “polymerase ribozyme fitness (log ratio)” value was -0.889.

Turning to U56A G80A U90A, the “polymerase ribozyme fitness (log ratio)” value is at most -4.2. For U55G C87U G92A U101G G143U, the “polymerase ribozyme fitness (log ratio)” value was -3.33. The figure for C54U U55A is -0.284. As to U56A C93U U127C, the “polymerase ribozyme fitness (log ratio)” value is -2.73.

Regarding U55A U146A, the “polymerase ribozyme fitness (log ratio)” value is -0.393. In the case of U55A U146G, the “polymerase ribozyme fitness (log ratio)” value is -0.637.

As to C57G C75U G86A A91C, the “polymerase ribozyme fitness (log ratio)” value is at most -4.2. With C57G C69G U101G C118U, the “polymerase ribozyme fitness (log ratio)” value was -2.81. For the variant U56G G83A C87G C116G G140C, the “polymerase ribozyme fitness (log ratio)” value is at most -4.2. Take U55A G126A: the “polymerase ribozyme fitness (log ratio)” value is -1.02. Consider U55A G126C, for which the “polymerase ribozyme fitness (log ratio)” value is 1.42. With U55A C105A, the “polymerase ribozyme fitness (log ratio)” value was -0.692. To U55A C105G belongs -1.73; to U56G G59U C87A, at most -4.2; to U55A U56G G80A, -1.37.

Turning to C57A A60G C75G A91U G136A A137G U144G, the “polymerase ribozyme fitness (log ratio)” value is at most -4.2. Turning to C57G C93A A113G A120C, the “polymerase ribozyme fitness (log ratio)” value was -4.13.

Turning to C57A C129U G141A, the “polymerase ribozyme fitness (log ratio)” value is at most -4.2.

As for U56A U82G C87G A91C, the “polymerase ribozyme fitness (log ratio)” value was at most -4.2.

In the case of C54U G92C A121U, the “polymerase ribozyme fitness (log ratio)” value is -0.244. To U56A C123U belongs 0.128; to U55G G59C G86A C103U U146C, -2.47; to U55A C87U C93U, -4.13.

Turning to U56C C93U C114G A119G, the “polymerase ribozyme fitness (log ratio)” value is -3.79. Regarding C57A U101G, the “polymerase ribozyme fitness (log ratio)” value was found to be 0.71. For the variant C57A C69A U127A, the “polymerase ribozyme fitness (log ratio)” value was at most -4.2. To C54U G92U A147U belongs 0.0812; to U55A C96G, -1.04. The figure for U55A C96A is -1.21; for C57A C72G U77A C87A U127A G136A it is at most -4.2; for C57A C93A it is -2.04. The figure for U55G C87A C93A C99U U134A is at most -4.2; for U56A C105U C116G it is -0.192. Regarding U56G A91G, the “polymerase ribozyme fitness (log ratio)” value was -3.24. For the variant U55A G83A, the “polymerase ribozyme fitness (log ratio)” value is -0.501.

Regarding U55A G70C G92U A119U, the “polymerase ribozyme fitness (log ratio)” value was -3.25.

For U56A C96U A119U, the “polymerase ribozyme fitness (log ratio)” value was -0.585. The figure for U55G G83U C95U A147C is -1.88; for C57A G74U G88U A115G A119U U145G C149G it is at most -4.2. The figure for U55A A64G U135A is at most -4.2. To U56G U78C C99G G124C C125U belongs -2.94. In the case of U56A C149A, the “polymerase ribozyme fitness (log ratio)” value is -3.67. Take U56G U102C: the “polymerase ribozyme fitness (log ratio)” value was -1.91. In the case of U56A C57A C85U C87U U144A U146G, the “polymerase ribozyme fitness (log ratio)” value is at most -4.2. The figure for U55A C85U C103U is -0.7; for U56A A73U C87A A142C it is at most -4.2.
